This note sets out measurements from patent US20250154238A1, “METHODS AND COMPOSITIONS FOR TREATING AND PREVENTING FIBROSIS” (YALE UNIVERSITY, priority 2022, published 2025).

The target of experiment [1] is recombinant mouse epiregulin (mouse) (UniProt Q61521).
Experiment [2] concerns the target recombinant human epiregulin containing the epidermal growth factor (EGF) domain (R&D Biosciences Cat #1195-EP) (human) (UniProt O14944). Put plainly: cell-based or functional assay.

recombinant mouse epiregulin (mouse), sequence (Q61521 56-101 limits assumed): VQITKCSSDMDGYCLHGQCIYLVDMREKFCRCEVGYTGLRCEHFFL
recombinant human epiregulin containing the epidermal growth factor (EGF) domain (R&D Biosciences Cat #1195-EP) (human), sequence (O14944 63-108 limits assumed): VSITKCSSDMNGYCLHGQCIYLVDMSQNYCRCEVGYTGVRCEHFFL

As to “rat anti-human/mouse neutralizing epiregulin antibody (R&D Systems MAB1068, clone 189611)”, in experiment [1], the IC50 of inhibition of HFF proliferation induced by 100 ng/ml rmEreg (GFP fluorescence) was found to be 0.1 µg/mL. Further, the IC50 of inhibition of epiregulin-induced HFF proliferation (rhEreg 100 ng/ml) in experiment [2] worked out at 0.16 µg/mL.
